Laboratory results from PMC5090862, “Coenzyme Engineering of a Hyperthermophilic 6-Phosphogluconate Dehydrogenase from NADP^+ to NAD^+ with Its Application to Biobatteries” (Scientific Reports, 2016).
Where a chain is given by its changes, count along the chain named. Numbers in names are those of the source.

B1: Tm6PGDH (6-phosphogluconate dehydrogenase from Thermotoga maritima) (Thermotoga maritima MSB8) (protein)
chain: MKSHIGLIGLAVMGQNLALNIARKGYKVSVYNRTAQRTEEFVKNRVTNEEIEPHYDIESFVKSLERPRKIILMVKAGKPVDDTISQLLPHLEPGDLIIDGGNSHYMDTERRFKELSEKGILFLGMGVSGGEYGALHGPSLMPGGSREAYNLVEEILLEIAAKTEDGPCCTYVGERSAGHFVKMVHNGIEYAIMQAIAEVYHIMRDVLSLSSEEMSSIFEEWNRGELSSFLVEITYKILRKKDEETGKPMVDVILDKAEQKGTGKWTSQAALDLGIPTPSINLAVVERVISHFKDIRTRLSKLYNKRRSATQGSEEFLRDLRNSLFFAMFMAFSQGMWLIAEASKEFGYGVSLSEVLRIWKGGCIIRAKLIDTLRRYISNENAYLLENEEVMNLLKGKIDSLKNILKASIENEIPVPVLSSSYNYFMSLTEERLPANLIQAQRDFFGAHTFERVDREGVFHINWEEGEIG
notes: full length in pET20b, C-terminal His tag (LEHHHHHH from primer), E. coli BL21(DE3), Ni-NTA; primers encode N-terminus MKSHIGLI and C-terminus NWEEGEIG before the tag
B2: Tm6PGDH (6-phosphogluconate dehydrogenase from Thermotoga maritima) (Thermotoga maritima MSB8; N32D) (protein)
chain: B1 chain with N32D
notes: as for B1
B3: Tm6PGDH (6-phosphogluconate dehydrogenase from Thermotoga maritima) (Thermotoga maritima MSB8; N32D/R33I/T34I) (protein)
chain: B1 chain with N32D, R33I, T34I
notes: as for B1
B4: Tm6PGDH (6-phosphogluconate dehydrogenase from Thermotoga maritima) (Thermotoga maritima MSB8; N32D/R33L/T34S) (protein)
chain: B1 chain with N32D, R33L, T34S
notes: as for B1
B5: Tm6PGDH (6-phosphogluconate dehydrogenase from Thermotoga maritima) (Thermotoga maritima MSB8; N32E/R33I/T34I) (protein)
chain: B1 chain with N32E, R33I, T34I
notes: as for B1

Molecular target: T1, Tm6PGDH (6-phosphogluconate dehydrogenase from Thermotoga maritima) (Thermotoga maritima, UniProt Q9WYR9, N32D/R33L/T34S)
T1 construct: gene TM_0438; full length in pET20b, C-terminal His tag (LEHHHHHH from primer), E. coli BL21(DE3), Ni-NTA; primers encode N-terminus MKSHIGLI and C-terminus NWEEGEIG before the tag
Test: NAD(P)H formation at […] nm, Michaelis-Menten fit
Assay type: biochemical
Conditions: 2 mM 6-phosphogluconate, 5 mM MgCl2, 0.5 mM MnCl2, 100 mM HEPES pH 7.5, 70 °C; apparent Km; read-out: Km (mM) / NADP^+
Excerpt: (§1) (6-phosphogluconate dehydrogenase from Thermotoga maritima)

T1 sequence (Q9WYR9 entry or part of it N32D/R33L/T34S): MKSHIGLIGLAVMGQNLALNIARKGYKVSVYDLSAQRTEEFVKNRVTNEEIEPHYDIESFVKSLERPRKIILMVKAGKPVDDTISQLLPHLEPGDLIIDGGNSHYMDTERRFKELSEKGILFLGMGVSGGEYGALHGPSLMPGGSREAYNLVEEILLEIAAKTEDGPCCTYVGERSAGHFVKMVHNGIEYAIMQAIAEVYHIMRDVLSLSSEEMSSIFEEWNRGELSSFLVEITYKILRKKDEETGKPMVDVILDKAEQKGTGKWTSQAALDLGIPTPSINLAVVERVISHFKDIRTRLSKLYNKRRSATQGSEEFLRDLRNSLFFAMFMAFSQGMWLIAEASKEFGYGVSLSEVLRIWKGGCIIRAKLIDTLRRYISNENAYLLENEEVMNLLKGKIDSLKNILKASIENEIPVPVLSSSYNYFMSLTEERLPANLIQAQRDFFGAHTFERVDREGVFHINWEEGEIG

Km [mM] | Molecule
> 100 | NC(=O)c1ccc[n+]([C@@H]2O[C@H](COP(=O)(O)OP(=O)(O)OC[C@H]3O[C@@H](n4cnc5c(N)ncnc54)[C@H](OP(=O)(O)O)[C@@H]3O)[C@@H](O)[C@H]2O)c1 [NADP^+]

Substrate: NC(=O)c1ccc[n+]([C@@H]2O[C@H](COP(=O)(O)OP(=O)(O)OC[C@H]3O[C@@H](n4cnc5c(N)ncnc54)[C@H](O)[C@@H]3O)[C@@H](O)[C@H]2O)c1
Test: purified protein
Assay type: biochemical, Thermotoga maritima
Conditions: 2 mM 6-phosphogluconate, 5 mM MgCl2, 0.5 mM MnCl2, 100 mM HEPES pH 7.5, 70 °C, apparent Km
Excerpt: as §1

Molecule | Km [mM] | kcat [s⁻¹] | kcat/Km [M⁻¹ s⁻¹]
B1 | 4.3 ± 0.4 | 23.3 ± 2 | 5400
B2 | 4.0 ± 0.1 | 29.3 ± 1.2 | 7300
B3 | 3.9 ± 0.4 | 32.2 ± 2.2 | 8300
B4 | 7.5 ± 0.8 | 25.4 ± 1.4 | 3400
B5 | 2.5 ± 0.2 | 47.9 ± 2.2 | 19200

Substrate: NC(=O)c1ccc[n+]([C@@H]2O[C@H](COP(=O)(O)OP(=O)(O)OC[C@H]3O[C@@H](n4cnc5c(N)ncnc54)[C@H](OP(=O)(O)O)[C@@H]3O)[C@@H](O)[C@H]2O)c1
Test: purified protein
Assay type: biochemical, Thermotoga maritima
Conditions: 2 mM 6-phosphogluconate, 5 mM MgCl2, 0.5 mM MnCl2, 100 mM HEPES pH 7.5, 70 °C, apparent Km
Excerpt: as §1

Molecule | Km [mM] | kcat [s⁻¹] | kcat/Km [M⁻¹ s⁻¹]
B1 | 0.005 ± 0.0004 | 17.6 ± 0.7 | 3.52e+06
B2 | 2.3 ± 0.1 | 16.7 ± 1 | 7300
B3 | 70 ± 17 | 15.9 ± 5.8 | 200
B5 | 79 ± 20 | 15.9 ± 7.9 | 200
